Assay results taken from US7745185B1, “Sulfotransferase 1A3 sequence variants” (Mayo Foundation for Medical Education and Research, priority 2003, dated 2010).
Like-named read-outs stand apart in the source and are kept apart here.

What was measured:
[1] = target: T1, SULT1A3 (Homo sapiens, UniProt P0DMM9, K234N); assay: SULT1A3 enzyme activity assay (sulfate conjugation of dopamine with PAPS) in COS-1 cytosol preparations; assay type: biochemical; conditions: recombinant allozyme expressed in COS-1 cells, dopamine 40 μM
T1 construct: made in house; host or cells: COS-1 cells transfected with pCR3.1 construct; high speed supernatant cytosol, unpurified
Excerpt: COS-1 cell expression: Two different SULT1A3 expression constructs were made using the pCR3.1 expression vector. One of the constructs was designed to express the SULT1A3 Lys234Asn allozyme, while the remaining construct was designed to express a wild type SULT1A3 polypeptide. All SULT1A3 cDNA sequences containing SULT1A3 nucleotide sequence variants used to create the expression constructs were created by site directed mutagenesis using the method described by Ho et al. (1989) Gene 77:51-59. Each SULT1A3 cDNA was amplified by PCR and subcloned into the eukaryotic expression vector pCR3.1 (Promega, Madison, Wis.). […]
Enzyme Assays: β-galactosidase activity in each of the COS-1 HSS preparations was measured with the β-galactosidase Enzyme Assay System (Promega, Madison, Wis.). […] The protein concentration of each recombinant protein preparation was determined by the dye-binding method of Bradford with bovine serum albumin (BSA) as a standard.
SULT1A3 enzyme activity was measured with an assay that involves sulfate conjugation of a sulfate acceptor substrate, dopamine (40 μM), in the presence of the sulfate donor 3′-phosphoadenosine-5′-phosphosulfate (PAPS). […] Enzyme activity was expressed as nanomoles (nmoles) of sulfate conjugated product formed per hour of incubation. […]

[2] = target: T2, SULT1A3 (Homo sapiens, UniProt P0DMM9); assay: Substrate kinetic studies, apparent Km for dopamine and PAPS; assay type: biochemical; conditions: recombinant enzyme
T2 construct: made in house; host or cells: COS-1 cells transfected with pCR3.1 construct; high speed supernatant cytosol, unpurified
Experimental: SULT1A3 enzyme activity was measured with an assay that involves sulfate conjugation of a sulfate acceptor substrate, dopamine (40 μM), in the presence of the sulfate donor 3′-phosphoadenosine-5′-phosphosulfate (PAPS). […] Cytosol from COS-1 cells transfected with empty pCR3.1 were used to correct for endogenous SULT activity. Because SULTs display profound substrate inhibition, a range of dopamine concentrations were tested to ensure that the assays were performed at a dopamine concentration that yielded maximal activity for the Lys234Asn allozyme. Enzyme activity was expressed as nanomoles (nmoles) of sulfate conjugated product formed per hour of incubation. Apparent Km values for PAPS were determined in the presence of dopamine, with PAPS concentrations that varied from 0.035 μM to 0.5 μM and dopamine concentrations that varied from 2.5 μM to 80 μM.
Data Analysis: Apparent Km values were calculated by using the method of Wilkinson with a computer program written by Cleland. Wilkinson, Biochem. J., 80:324-332 (1961); and Cleland, Nature, 198:463-365 (1963). Statistical comparisons of data were performed by ANOVA with the StatView program, version 4.5 (Abacus Concepts, Inc., Berkeley, Calif.). Linkage analysis was performed after all DNA samples had been genotyped at each of the 6 polymorphic sites observed. D′ values, a quantitative method for reporting linkage data that is independent of allele frequency (Hartl and Clark, Principles of Population Genetics, 3rd ed. (1997) Sinauer Associates, Inc., (Sunderland, Mass.), pp. 96-106; and Hedrick, Genetics of Populations, 2nd ed. (2000) Jones and Bartlett (Sudbury, Mass.), pp. 396-405), then were calculated. The genotype data also were used to assign inferred haplotypes using a program based on the E-M algorithm (Long et al. (1995) Am. J. Hum. Genet. 56:799-810; and Excoffier and Slatkin (1995) Mol. Biol. Evol. 12:921-927). Unambiguous haplotype assignment also was possible on the basis of genotype for samples that contained no more than one heterozygous polymorphism.
Alterations in amino acid sequence can alter enzyme substrate affinity and/or catalytic efficiency. Substrate kinetic studies were conducted to determine whether the Lys234Asn allozyme differed from the WT SULT1A3 protein in these aspects. A series of dopamine and PAPS concentrations were used to estimate apparent Km values for recombinant wild type SULT1A3 and for the Lys234Asn variant allozyme.

[3] = PAPS 0.035 μM to 0.5 μM in the presence of dopamine, read-out: apparent Km for PAPS
[4] = dopamine 2.5 μM to 80 μM, read-out: apparent Km for dopamine

Row | Molecule | enzyme activity as percentage of WT activity [1] | reduction in enzyme activity ([1]; relative to WT SULT1A3) | Km [2, 3] | Km [2, 4]
1 | Lys234Asn: SULT1A3 polypeptide having an asparagine at amino acid residue 234 (allozyme encoded by thymine at nucleotide 702) (protein, listed as Homo sapiens) MELIQDTSRPPLEYVKGVPLIKYFAEALGPLQSFQARPDDLLINTYPKSGTTWVSQILDMIYQGGDLEKCNRAPIYVRVPFLEVNDPGEPSGLETLKDTPPPRLIKSHLPLALLPQTLLDQKVKVVYVARNPKDVAVSYYHFHRMEKAHPEPGTWDSFLEKFMAGEVSYGSWYQHVQEWWELSRTHPVLYLFYEDMKENPKREIQKILEFVGRSLPEETMDFMVQHTSFKEMKNNPMTNYTTVPQELMDHSISPFMRKGMAGDWKTTFTVAQNERFDADYAEKMAGCSLSFRSEL | 27% | 73% | 0.107 µM | 9.8 µM
2 | WT: reference SULT1A3 polypeptide (SEQ ID NO:4) that contains a lysine at amino acid residue 234 (protein, listed as Homo sapiens) MELIQDTSRPPLEYVKGVPLIKYFAEALGPLQSFQARPDDLLINTYPKSGTTWVSQILDMIYQGGDLEKCNRAPIYVRVPFLEVNDPGEPSGLETLKDTPPPRLIKSHLPLALLPQTLLDQKVKVVYVARNPKDVAVSYYHFHRMEKAHPEPGTWDSFLEKFMAGEVSYGSWYQHVQEWWELSRTHPVLYLFYEDMKENPKREIQKILEFVGRSLPEETMDFMVQHTSFKEMKKNPMTNYTTVPQELMDHSISPFMRKGMAGDWKTTFTVAQNERFDADYAEKMAGCSLSFRSEL |  |  | 0.112 µM | 10.4 µM
